B1: CRYL1 (parent)
chain: RNALENIRKEMKLLEQAGSLKGSL
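Also: lentivirally expressed fusions sorted by FACS into six bins by GFP to DsRed ratio, PSI derived from sequencing read proportions per bin multiplied by bin number.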

This data set covers variants of B1. The data set can be described thus: protein stability index of a GFP-peptide fusion (GPS, HEK-293T) (PSI 1-6); higher = more stable. Particulars: c terminus: a fixed tail appended.
On to RNALENIRKEMKLWEQAGSLKGSL [L14W], for which the protein stability index stood at 3.17.

RNALENIRKEMKLREQAGSLKGSL [L14R]: the protein stability index came to 3.93.

As for RNALENIRKEMKLIEQAGSLKGSL [L14I], the protein stability index is 3.47.

For the variant RNALENIRKEMKLMEQAGSLKGSL [L14M], the protein stability index stood at 2.68.

In the case of RNALENIRKEMKLNEQAGSLKGSL [L14N], the protein stability index worked out at 4.11.

Consider RNALENIRKEMKLEEQAGSLKGSL [L14E], for which the protein stability index was 4.88.

On to RNALENIRKEMKLQEQAGSLKGSL [L14Q], for which the protein stability index stood at 4.18.

Turning to RNALENIRKEMKLCEQAGSLKGSL [L14C], the protein stability index was 3.39.

For the variant RNALENIRKEMKLAEQAGSLKGSL [L14A], the protein stability index stood at 3.77.

With RNALENIRKEMKLDEQAGSLKGSL [L14D], the protein stability index worked out at 4.36.

With RNALENIRKEMKLPEQAGSLKGSL [L14P], the protein stability index was found to be 3.93.

RNALENIRKEMKLFEQAGSLKGSL [L14F]: the protein stability index worked out at 3.19.

With RNALENIRKEMKLSEQAGSLKGSL [L14S], the protein stability index worked out at 3.77.

Turning to RNALENIRKEMKLYEQAGSLKGSL [L14Y], the protein stability index is 3.86.

Consider RNALENIRKEMKLLEAAGSLKGSL [Q16A], for which the protein stability index turned out to be 2.93.

RNALENIRKEMKLLELAGSLKGSL [Q16L]: the protein stability index came out at 2.06.

For RNALENIRKEMKLLEMAGSLKGSL [Q16M], the protein stability index stood at 2.76.

With RNALENIRKEMKLLECAGSLKGSL [Q16C], the protein stability index was found to be 3.35.

On to RNALENIRKEMKLLEIAGSLKGSL [Q16I], for which the protein stability index stood at 2.76.

Regarding RNALENIRKEMKLLENAGSLKGSL [Q16N], the protein stability index worked out at 3.75.

With RNALENIRKEMKLLESAGSLKGSL [Q16S], the protein stability index was found to be 2.62.

On to RNALENIRKEMKLLETAGSLKGSL [Q16T], for which the protein stability index is 3.01.

RNALENIRKEMKLLEYAGSLKGSL [Q16Y]: the protein stability index came to 2.37.

RNALENIRKEMKLLEPAGSLKGSL [Q16P]: the protein stability index was determined as 3.3.

In the case of RNALENIRKEMKLLERAGSLKGSL [Q16R], the protein stability index came to 2.86.

On to RNALENIRKEMKLLEFAGSLKGSL [Q16F], for which the protein stability index was determined as 2.71.

With RNALENIRKEMKLLEGAGSLKGSL [Q16G], the protein stability index came to 3.7.

In the case of RNALENIRKEMKLLEHAGSLKGSL [Q16H], the protein stability index came out at 3.25.

Turning to RNALENIRKEMKLLEDAGSLKGSL [Q16D], the protein stability index was 4.1.

Regarding RNALENIRKEMKLLEEAGSLKGSL [Q16E], the protein stability index amounted to 3.75.

For RNALENIRKEMKLLEWAGSLKGSL [Q16W], the protein stability index came to 2.11.

On to RNALENIRKEMKLLEVAGSLKGSL [Q16V], for which the protein stability index came out at 2.89.

In the case of RNALENIRKEMKLLEKAGSLKGSL [Q16K], the protein stability index was 3.02.

As for RNALENIRKEMKDLEQAGSLKGSL [L13D], the protein stability index came out at 4.12.

In the case of RNALENIRKEMKHLEQAGSLKGSL [L13H], the protein stability index was 4.32.

On to RNALENIRKEMKTLEQAGSLKGSL [L13T], for which the protein stability index came to 3.04.

On to RNALENIRKEMKALEQAGSLKGSL [L13A], for which the protein stability index is 3.89.

Take RNALENIRKEMKSLEQAGSLKGSL [L13S]: the protein stability index was 4.04.

Turning to RNALENIRKEMKFLEQAGSLKGSL [L13F], the protein stability index was determined as 2.85.

For RNALENIRKEMKKLEQAGSLKGSL [L13K], the protein stability index worked out at 3.87.

RNALENIRKEMKPLEQAGSLKGSL [L13P]: the protein stability index was determined as 4.52.

For RNALENIRKEMKQLEQAGSLKGSL [L13Q], the protein stability index is 4.5.

Consider RNALENIRKEMKRLEQAGSLKGSL [L13R], for which the protein stability index came to 3.66.

With RNALENIRKEMKILEQAGSLKGSL [L13I], the protein stability index is 3.77.

For the variant RNALENIRKEMKNLEQAGSLKGSL [L13N], the protein stability index was found to be 3.53.

For RNALENIRKEMKYLEQAGSLKGSL [L13Y], the protein stability index came to 2.98.

Consider RNALENIRKEMKELEQAGSLKGSL [L13E], for which the protein stability index was 3.94.

Turning to RNALENIRKEMKGLEQAGSLKGSL [L13G], the protein stability index worked out at 4.1.

For the variant RNALENIRKEMKLLEQAGSLKCSL [G22C], the protein stability index amounted to 2.65.

Regarding RNALENIRKEMKLLEQAGSLKDSL [G22D], the protein stability index turned out to be 4.1.

With RNALENIRKEMKLLEQAGSLKASL [G22A], the protein stability index came out at 3.21.

Turning to RNALENIRKEMKLLEQAGSSKGSL [L20S], the protein stability index worked out at 3.98.

Regarding RNALENIRKEMKLLEQAGSPKGSL [L20P], the protein stability index amounted to 4.09.

With RNALENIRKEMKLLEQAGSHKGSL [L20H], the protein stability index was 3.99.

In the case of RNALENIRKEMKLLEQAGSTKGSL [L20T], the protein stability index was 3.56.

Take RNALENIRKEMKLLEQAGSFKGSL [L20F]: the protein stability index turned out to be 2.86.

Take RNALENIRKEMKLLEQAGSNKGSL [L20N]: the protein stability index was determined as 4.28.

For RNALENIRKEMKLLEQAGSVKGSL [L20V], the protein stability index worked out at 4.17.

Regarding RNALENIRKEMKLLEQAGSQKGSL [L20Q], the protein stability index came to 4.71.

Consider RNALENIRKEMKLLEQAGSCKGSL [L20C], for which the protein stability index is 3.65.

As for RNALENIRKEMKLLEQAGSGKGSL [L20G], the protein stability index stood at 4.08.

Regarding RNALENIRKEMKLLEQAGSYKGSL [L20Y], the protein stability index came out at 3.9.

As to RNALENIRKEMKLLEQAGSEKGSL [L20E], the protein stability index was 4.79.

In the case of RNALENIRKEMKLLEQAGSDKGSL [L20D], the protein stability index is 4.16.

Consider RNALENIRKEMKLLEQAGSKKGSL [L20K], for which the protein stability index is 4.55.

Turning to RNALENIRKEMKLLEQAGSWKGSL [L20W], the protein stability index stood at 2.9.

With RNALENIRKEMKLLEQAGSMKGSL [L20M], the protein stability index was 2.84.

On to RNALENIRKEMKLLEQAGSRKGSL [L20R], for which the protein stability index amounted to 4.17.

As to RNALENIRKESKLLEQAGSLKGSL [M11S], the protein stability index is 4.92.

Take RNALENIRKELKLLEQAGSLKGSL [M11L]: the protein stability index was 3.1.

On to RNALENIRKEWKLLEQAGSLKGSL [M11W], for which the protein stability index was found to be 2.21.

In the case of RNALENIRKEQKLLEQAGSLKGSL [M11Q], the protein stability index was 3.93.

Turning to RNALENIRKEPKLLEQAGSLKGSL [M11P], the protein stability index was 4.49.

RNALENIRKEYKLLEQAGSLKGSL [M11Y]: the protein stability index was determined as 2.92.

Turning to RNALENIRKETKLLEQAGSLKGSL [M11T], the protein stability index is 4.37.

RNALENIRKEVKLLEQAGSLKGSL [M11V]: the protein stability index turned out to be 3.23.

For the variant RNALENIRKERKLLEQAGSLKGSL [M11R], the protein stability index turned out to be 4.01.

For RNALENIRKEMRLLEQAGSLKGSL [K12R], the protein stability index worked out at 3.06.

Regarding RNALENIRKEMYLLEQAGSLKGSL [K12Y], the protein stability index came out at 3.75.

On to RNALENIRKEMHLLEQAGSLKGSL [K12H], for which the protein stability index amounted to 3.46.

Consider RNALENIRKEMLLLEQAGSLKGSL [K12L], for which the protein stability index turned out to be 3.55.

Take RNALENIRKEMILLEQAGSLKGSL [K12I]: the protein stability index turned out to be 3.46.

Take RNALENIRKEMDLLEQAGSLKGSL [K12D]: the protein stability index came to 4.23.

Consider RNALENIRKEMALLEQAGSLKGSL [K12A], for which the protein stability index came to 3.46.

As for RNALENIRKEMMLLEQAGSLKGSL [K12M], the protein stability index stood at 2.89.

In the case of RNALENIRKEMFLLEQAGSLKGSL [K12F], the protein stability index is 2.39.

Consider RNALENIRKEMNLLEQAGSLKGSL [K12N], for which the protein stability index was determined as 3.36.

For RNALENIRKEMWLLEQAGSLKGSL [K12W], the protein stability index is 1.72.

In the case of RNALENIRKEMELLEQAGSLKGSL [K12E], the protein stability index stood at 3.38.

In the case of RNALENIRKEMQLLEQAGSLKGSL [K12Q], the protein stability index was 3.31.

For RNALENIRKEMSLLEQAGSLKGSL [K12S], the protein stability index worked out at 3.53.

Regarding RNALENIRKEMPLLEQAGSLKGSL [K12P], the protein stability index came out at 4.57.

With RNALENIRKEMTLLEQAGSLKGSL [K12T], the protein stability index was found to be 3.54.

For RNALENIRKEMCLLEQAGSLKGSL [K12C], the protein stability index was 3.43.

The values above are taken from the supplement of paper PMC10567573.
